Source: a protein production outcome set (Wang et al. 2014)

Assay: label from the status in PepcDB records

MSFKVISTGPQAIFQDRGRFGFASAGVGTSGSFDRLSAARANHALGNDPNATVVEILLGGFEVEALHTTSIVFTGTEAEVMVRTAGGQSKNATTNTIIDVAAGERIRVEPATYGMRAYFAARGGFAVEKTLGSASTDLISHMGPRPIEPGDVIDVATDIADSQWWPKLRQLPTLWKRMPTETLTVIRGPRDKWFTQESLNNFFTQVFTVSNDSNRIGLRMHSSEPIQHRVEGELKSEGMVRGSIQIPPGGNPVVFGPDHPVTGGYPVIAVLTSRSCDRSAQLLPGDKVRFKLL
protein production: failed

MSFRVSASSSVKPEKDIRIGLLGASGYTGAEIVRLLANHPHFQVTLMTADRKAGQSMESVFPHLRAQKLPTLVSVKDADFSTVDAVFCCLPHGTTQEIIKELPTALKIVDLSADFRLRNIAEYEEWYGQPHKAVELQKEVVYGLTEILREDIKKARLVANPGCYPTTIQLPLVPLLKANLIKHENIIIDAKSGVSGAGRGAKEANLYSEIAEGISSYGVTRHRHVPEIEQGLSDVAQSKVTVSFTPHLMPMIRGMQSTIYVEMAPGVRTEDLHQQLKTSYEDEEFVKVLDEGVVPRTHNVRGSNYCHMSVFPDRIPGRAIIISVIDNLVKGASGQALQNLNIMLGYPETTGLLHQPLFP
protein production: failed

MSFSDHFSAVAASYAKARPRYPQRWFRYLARIVPDRQRVWDCATGNGQAAIALAEYFSEVIGSDASAAQVRQARSHPRVQYLVFPAEATPLAPASLDLITVAQAAHWFDLPQFYIEAQRLLRPGGVIALWGYGLGSLNPAIDHVFNHFYRDWLDPYWPPERQWVEQAYEGLSFPFEPLPTPTFSMQCDWTLFDLLAYLRTWSGVQQFQRQRGFDPVWAIAPELQRVWGDPQRYRRITWPLFAKVGRWQPLEHHHHHH
protein production: not failed

MSFSFLFILTAGMVAAFNPCGIALLPSYISYLIGGETKDHSFRYAIFKGLGLGGAMTTGFLTIFVLAGLLIGGLGSALTGIFPILSLVMGILIALLGLGMLFGKHLPIKIGSFQVKPGKWSIYFYGIAYAVTSLGCTLPAFMLVVSASLNDNSVTAVIIKFIIYSLGMGIVVTAITMVSLISRQLVQKFLHNYMGSIQKIAAVVIFLSGLYMAYYWYFGSGGICTF
protein production: failed

MSFVAYEELIKEGDTAILSLGHGAMVAVRVQRGAQTQTRHGVLRHSVDLIGRPFGSKVTCGRGGWVYVLHPTPELWTLNLPHRTQILYSTDIALITMMLELRPGSVVCESGTGSGSVSHAIIRTIAPTGHLHTVEFHQQRAEKAREEFQEHRVGRWVTVRTQDVCRSGFGVSHVADAVFLDIPSPWEAVGHAWDALKVEGGRFCSFSPCIEQVQRTCQALAARGFSELSTLEVLPQVYNVRTVSLPPPDLGTGTDGPAGSDTSPFRSGTPMKEAVGHTGYLTFATKTPG
protein production: not failed

MSFWRPRLGLLDASVLSFAVLPTDLDFNRHMTNARYLSLMDLGRLDLILRSGMWRLVLRQSLQPVIGGALVRFRHALRPFQPFRLTTRVLAWDARWLFIEHRVETLDGKPACTAVVRAAFVASTGMLPTADLLTRLGYGGAAPDVPAWIAPWLQADLACQPASPPLENPL
protein production: failed

MSGDMEATGWGYTHISVDSFCHKWTISNFSFCMDGIMETITSPKFSLKASDKVEWGLKVHPNGIDEESKNYLSVYLALLHCQKSPVWAKYEFWIINSQGEKYQSRKSTKVVSFHKNKYRGFKKFILRDFLFSNPHRLLPEDQLTLCCQVSIMGAFFKTPGQSITPAVPDPRHMMADDLGELWENSLCTDCCLLVAGQEFRAHKAILAARSPVFRAMFEHQMEERLTNRVDINGLDPKVFKEMMGFIYTGKAPHLHIHSMACDLLAAADRYGLEGLKVMCEDALCRNLSVENAAHTLILADLHNIEQLKTQALDFIALHASEVSENSEWKSMMESHPHLVAETFHSLASAQCFLEPSIKHLK
protein production: failed

MSGFHYPGVPVTALLYSLWPLFALIVGGYALRRWDFPGEAFWPAAERLNYFILFPALLFSNLATAPLDDPGLARQALAVLLGLGVAWLALLLCKRWRGWDAGRFGAIAQGVLRFNTYLGLAAVGSLYGKPGLTLAALMLALMVPTVNVMSVWALTAERGISLRALLLPILKNPLILACLAGALVNLAGVGLPGGSDRLLNLLAVASLPLGLLCVGAALKPQELGGEVAALGWNCAARLLAMPLLAFAIARGLGLPSMESAVLVLFFALPTAPTAYVLTRQLGGDGHLMAGIITLQTLLSGATLVGVLLVLQGSP
protein production: failed

MSGFSPELIDYLEGKISFEEFERRREERKTREKKSLQEKGKLSAEENPDDSEVPSSSGINSTKSQDKDVNEGETSDGVRKSVHKVFASMLGENEDDEEEEEEEEEEEEEEETPEQPTAGDVFVLEMVLNRETKKMMKEKRPRSKLPRALRGLMGEANIRFARGEREEAILMCMEIIRQAPLAYEPFSTLAMIYEDQGDMEKSLQFELIAAHLNPSDTEEWVRLAEMSLEQDNIKQAIFCYTKALKYEPTNVRYLWERSSLYEQMGDHKMAMDGYRRILNLLSPSDGERFMQLARDMAKSYYEANDVTSAINIIDEAFSKHQGLVSMEDVNIAAELYISNKQYDKALEIITDFSGIVLEKKTSEEGTSEENKAPENVTCTIPDGVPIDITVKLMVCLVHLNILEPLNPLLTTLVEQNPEDMGDLYLDVAEAFLDVGEYNSALPLLSALVCSERYNLAVVWLRHAECLKALGYMERAAESYGKVVDLAPLHLDARISLSTLQQQLGQPEKALEALEPMYDPDTLAQDANAAQQELKLLLHRSTLLFSQGKMYGYVDTLLTMLAMLLKVAMNRAQVCLISSSKSGERHLYLIKVSRDKISDSNDQESANCDAKAIFAVLTSVLTKDDWWNLLLKAIYSLCDLSRFQEAELLVDSSLEYYSFYDDRQKRKELEYFGLSAAILDKNFRKAYNYIRIMVMENVNKPQLWNIFNQVTMHSQDVRHHRFCLRLMLKNPENHALCVLNGHNAFVSGSFKHALGQYVQAFRTHPDEPLYSFCIGLTFIHMASQKYVLRRHALIVQGFSFLNRYLSLRGPCQESFYNLGRGLHQLGLIHLAIHYYQKALELPPLVVEGIELDQLDLRRDIAYNLSLIYQSSGNTGMAQTLLYTYCSI
protein production: failed

MSGGQQERHVLILNTVGGRRAIALEAAAYSLGRDESNAIVIDFETVSRQHAILLRVPVPGTTSYRYRLVDGNANGKPSTNGTFVNGKRISSHELQHGDVILFGRKAKASYLLLSMADTEFSQYLQSIAFQSIKSDLRGAKETLVGMELSGELRRTPNRELVAAGATQLHPELEPAKDTLSSESDSEPKGNNKETLHEKESQGSKTNLVALGAIALVVVAIIAGAVWRAGFSANPPQGSPPATPTRN
protein production: failed

MSGGRAQKPRPAPLRLAKPRPSSVGPAPRGSPGARRPAMSARHAPLLAGRVRSRAPRRFPDRGGGRRRQSSPVRAMSSPAVARASPGGNREASGGPRSRNGPWEVGGGGERLERAGAESGRWELLLRRGELLALGGHLKGALEAFAAALRRGAPARPERLGSLVDCLVFSYRLRHGLRWSAAPAAGAAGLLSCLSCRGFLSEPVTVPCGHSYCRRCLRRELRARCRLCRDRLPPAAAASEGTPRPPPLAAAIADFRTSVVLNHLAEKWFPGQRERARAAGRLGELLHEGRYREALAAACDALRAEPSDLTLKIYRAESYAGLQEFKAALEDLNAVLFQLPNWPEVYFRKGKVLQDAGFLGDALQLFLQCLALDEDFAPAKLQVEKILCDLLSPENVREGLKESSWSSLPCIKSKPLGFPSVMEQPHSPAELGLKQPEERVEDAPEPVKGSLSRAQSAQAISAAAVPAREDGLKRVCSEPLLSAQGKGVLLKRKLSLLEQDVLINEDGRSKLKKQSESPSEDCMFSIAYGDIPEELIDVSDFECSLCMRLFFEPVTTPCGHSFCKNCLERCLDHAPYCPLCKESLKEYLADRRYCVTQLLEELIVKYLPDELSERKKIYDEETAELSHLTKNVPIFVCTMAYPTVPCPLHVFEPRYRLMIRRSIQTGTKQFGMCVSDTQNSFADYGCMLQIRNVHFLPDGRSVVDTVGGKRFRVLKRGMKDGYCTADIEYLEDVKIENGDEIRSLRELHDSVYSQACSWFQNLRDRFRSQILQHFGSMPEREENLQATPNGPAWCWWLLAVLPVDPRYQLSVLSMKSLEERLTKIQHILTYFSRDQSK
protein production: failed

MSGIEAKNLWHRLNNLALVRFLLLVAAGWAIVQLLAYFETVIIIFTFAAILAFLLSYPVQWLRRFLPHSVAVVVVFLISIVILGGLLITVGVALLSQGQQLIDSISAFLTSLLPFLERIERLLSNRNLQIDLSVIQEQLRTQAVSTLVTSLAIVQQFLTNFVTFILIAVVAFFMLLDGEKLWNFILKIVPQKRRIRFTNIMRRSFLGFFRGQLLLCLFLTSSTFIIFLLLQVPFALILSVIVGILDIIPGIGATLGVGTITLIVLSQDVWLALKVLAACVVLQQIQDNLISPRIMQGSLNLNPVVVFFALLVGARVAGLLGVFISIPITGVIVSLFEIDEMKSEV
protein production: failed

MSGILALGAYVPERVMTNADFEAYLDTSDEWIVTRTGIKERRVAAEDEYTSDLAFKAVEDLLRRHPGALEGVDAVIVATNTPDALFPDTAALVQARFGLKAFAYDLLAGCPGWIYALAQAHALVEAGLAQKVLAVGAEALSKIIDWNDRATAVLFGDGGGAAVVGKVREGYGFRSFVLGADGTGAKELYHACVAPRLPDGTSMKNRLYMNGREVFKFAVRVMNTATLEAIEKAGLTPEDIRLFVPHQANLRIIDAARERLGLPWERVAVNVDRYGNTSTASIPLALKEALDAGRIREGDHVLLVSFGAGLTWAAAVLTWGGA
protein production: not failed

MSGLDPARSILQGSAEGPVIATGEALSFWGGVDPATGCVIDVHHPLHGVPLTGSILMMPSSRGSCTGSGVLLDLVLTGRGPAALVFSEPEDVLTLGALIASEMFGKPLPVL
protein production: failed

MSGMRVYLGADHAGYELKQRIIEHLKQTGHEPIDCGALRYDADDDYPAFCIAAATRTVADPGSLGIVLGGSGNGEQIAANKVPGARCALAWSVQTAALAREHNNAQLIGIGGRMHTVAEALAIVDAFVTTPWSKAQRHQRRIDILAEYERTHEAPPVPGAPA
protein production: not failed

MSGMVDLKEFLAELGKTQKELKNVIEQAKDIGLELKTNSKMTPEQAGKLYKYIVDGIKEQIQANQPAKNPEQDNKDDLNTAVASKSLNKKVSKTPKKEETKSQPKPKKTKEKKKEAPTPIAKKKGGIEIVNTFENQTPPTENTPKVVSHSQIEKAKQKLQEIQKSREALNKLTQSNANNASNANNAKKEISEVKKQEQEIKRHENIKRRTGFRVIKRNDEVENESENSVTESKKPTQSAAAIFEDIKKEWQEKDKQEAKKAKKPSKPKATPTAKNNKSHKIDFSDARDFKGNDIYDDETDEILLFDLHEQDNFNKEEEEKEIRQNINDRVRVQRKNPWMNESGIKRQSKKKRAFRNDNSQKVIQSTTAIPEEVRVYEFAQKANLNLADVIKTLFNLGLMVTKNDFLDKDSIEILAEEFHLEISVQNTLEEFEVEEVLEGVKKERPPVVTIMGHVDHGKTSLLDKIRDKRVAHTEAGGITQHIGAYMVEKNDKWVSFIDTPGHEAFSQMRNRGAQVTDIAVIVIAADDGVKQQTIEALEHAKAANVPVIFAMNKMDKPNVNPDKLKAECAELGYNPVDWGGEHEFIPVSAKTGDGIDNLLETILIQAGIMELKAIEEGSARAVVLEGSVEKGRGAVATVIVQSGTLSVGDSFFAETAFGKVRTMTDDQGKSIQNLKPSMVALITGLSEVPPAGSVLIGVENDSIARLQAQKRATYLRQKALSKSTKVSFDELSEMVANKELKNIPVVIKADTQGSLEAIKNSLLELNNEEVAIQVIHSGVGGITENDLSLVSSSEHAVILGFNIRPTGNVKNKAKEYNVSIKTYTVIYALIEEMRSLLLGLMSPIIEEEHTGQAEVRETFNIPKVGTIAGCVVSDGVIARGIKARLIRDGVVIHTGEILSLKRFKDDVKEVSKGYECGIMLDNYNEIKVGDVFETYKEIHKKRTL
protein production: failed
